The results in this text go back to paper PMC10539301.

In this assay the target is ATAD2 Walker B mutant (E532Q), aa 403-1390 (human) (UniProt Q6PL18).
Sequence of ATAD2 Walker B mutant (E532Q), aa 403-1390 (human) (Q6PL18 403-1390 E532Q): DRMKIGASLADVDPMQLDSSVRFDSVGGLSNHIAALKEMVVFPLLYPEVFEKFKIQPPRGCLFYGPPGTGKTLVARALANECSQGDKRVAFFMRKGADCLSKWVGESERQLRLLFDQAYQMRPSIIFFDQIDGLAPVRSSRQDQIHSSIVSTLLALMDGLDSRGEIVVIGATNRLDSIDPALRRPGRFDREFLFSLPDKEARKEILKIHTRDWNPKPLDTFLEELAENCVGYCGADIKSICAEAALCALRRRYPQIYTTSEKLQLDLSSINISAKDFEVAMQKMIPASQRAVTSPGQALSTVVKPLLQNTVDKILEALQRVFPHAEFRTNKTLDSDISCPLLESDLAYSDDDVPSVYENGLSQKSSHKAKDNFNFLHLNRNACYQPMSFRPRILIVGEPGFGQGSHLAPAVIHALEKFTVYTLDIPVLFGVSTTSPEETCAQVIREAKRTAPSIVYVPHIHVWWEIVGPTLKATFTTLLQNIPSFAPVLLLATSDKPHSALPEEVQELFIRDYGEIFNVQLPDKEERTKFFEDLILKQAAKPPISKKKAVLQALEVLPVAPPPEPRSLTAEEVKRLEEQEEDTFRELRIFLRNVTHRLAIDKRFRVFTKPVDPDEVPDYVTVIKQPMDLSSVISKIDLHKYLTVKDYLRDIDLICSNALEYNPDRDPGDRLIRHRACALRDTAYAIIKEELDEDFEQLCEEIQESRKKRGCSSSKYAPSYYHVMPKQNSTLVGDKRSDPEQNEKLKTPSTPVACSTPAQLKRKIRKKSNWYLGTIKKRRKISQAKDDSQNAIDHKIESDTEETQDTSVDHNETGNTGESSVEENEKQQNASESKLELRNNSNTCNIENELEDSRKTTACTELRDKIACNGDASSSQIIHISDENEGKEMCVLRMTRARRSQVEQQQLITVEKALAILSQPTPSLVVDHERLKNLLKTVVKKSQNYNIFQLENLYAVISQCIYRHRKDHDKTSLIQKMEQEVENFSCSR

“Histone H3/H4 complex (X. laevis, wild type, refolded) (from UniProt P84233 1-136; P62799 1-103)”: the HS-AFM: increase of the frequency of symmetry breaking of the ATAD2 Walker B hexameric ring (events per ring or per cumulative observation time) with H3/H4 amounted to 40%; the HS-AFM: reversibility of symmetry breaking of the ATAD2 Walker B hexameric ring, without and with H3/H4 was found to be 30%.
